In test [1] the target is soymeal proteins (ethanol-precipitated, heat-denatured soy-meal protein mixture).
Test [2] deals with lactoferrin (glycosylated, of human milk) (human) (UniProt P02788).

B1: EndoBI-1 (endo-β-N-acetylglucosaminidase from B. infantis), enzyme solution used in Example 1 (enzyme)
chain: DAVSPTQETIQSTGRHFMVYYRAWRDVTMKGVNTDLPDDNWISMYDIPYGVDVVNIFSYVPSGQEEQAQPFYDKLKSDYAPYLHSRGIKLVRGIDYTGVAVNGFRTFMKEQNKTESEATEADYDAYAKQVIDKYMISVGLDGLDIDMEAHPNDADVKISDNVIRALSKHIGPKSAKPDTTMFLYDTNGSYLNPFKNVAECFDYVAYQQYGSSSDRTARAAADYQPYIGNEFVPGLTFPEEGDMNNRWYDATEPYEESHFYQVASYVREHNLGGMFVYALDRDGRNYDEDLRRIVPSNLLWTKTAIAESEGMALDTAKTAANHYLDRMSLRQVIDDNAASADKARDMVGKAANLYETNKAVLGGDYGEGFSNTYDPTLEAGLLGIDISVLQQQIDKSSEIIGADTAESDAKTALRMARDAAIDGLTGKIYTADQVSAWSQALKAALDATVPVPTPDSTDQNGNRDKVTNHKVQGQPKQLSATGISTDIIVAVGVTLAIAGVALSLSRKLS
Consider B1, for which the Glycan Yield (ug), released glycans measured by phenol sulphuric total carbohydrate assay in test [1] came to 75 µg.

B2: EndoBI-1 of B. infantis EVC001 as acting in the gut of EVC001-fed infants (enzyme)
chain: B1 chain
For the molecule B2, the N-glycans in fecal samples (nano-HPLC-Chip-TOF) compared with the lactoferrin N-glycan library (out of 18 N-glycans) in test [2] was found to be 14.

These data come from US20220273733A1.
